Source: article PMC8498639, “3D Domain Swapping Dimerization of the Receiver Domain of Cytokinin Receptor CRE1 From Arabidopsis thaliana and Medicago truncatula” (Frontiers in Plant Science, 2021)
Where two headings read alike, the source gives them in different places. Values belong to the molecule of their own block, whether it stands above or below them.

Experiments:
[1] = target: MtHPt1 (histidine-containing phosphotransfer protein 1 of Medicago truncatula) with N-terminal His6-MBP fusion (Medicago truncatula); test: BLI; His6-MBP-MtHPt1 (104 nM) immobilised on Ni-NTA sensors; MtCRE1-IC at 2.5, 5, 10, 20 nM; SEC buffer (25 mM HEPES pH 7.5, 50 mM NaCl, 100 mM KCl, 1 mM TCEP) with 10% Kinetic Buffer, with 0.5 mM ATP and 2 mM MgCl2; 25°C; global 1:1 fit
[2] = target: MtHPt1 (histidine-containing phosphotransfer protein 1 of Medicago truncatula) with N-terminal His6-MBP fusion (Medicago truncatula); test: as above; remark: listed apart in the source
[3] = target: the molecule itself; test: native gel or EMSA; Native-PAGE of AtCRE1-REC compared with monomeric PR-10 proteins of similar calculated pI
[4] = target: the molecule itself; test: crystal structure; MtCRE1-REC-Ca, 2.5 Å, space group P3(1)21, one subunit in the asymmetric unit, dimer by a crystallographic twofold; Ca2+ bound
[5] = target: the molecule itself; test: crystal structure; AtCRE1-REC-K, 2.15 Å, space group P2(1)2(1)2, two subunits in the asymmetric unit; K+ bound

Sequence of MtHPt1 (histidine-containing phosphotransfer protein 1 of Medicago truncatula) with N-terminal His6-MBP fusion (Medicago truncatula) (main, as listed by the source): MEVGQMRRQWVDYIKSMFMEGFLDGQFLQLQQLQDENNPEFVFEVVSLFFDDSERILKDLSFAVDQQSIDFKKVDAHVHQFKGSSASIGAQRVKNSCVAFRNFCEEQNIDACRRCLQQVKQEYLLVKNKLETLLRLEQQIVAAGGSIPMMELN

Kd [1]: 12 to 54 nM
Kd [2]: 12 nM
Molecule: MtCRE1-IC (intracellular domain of Medicago truncatula CRE1, Ile352-Ser1003) (from UniProt G7LCC3 352-1003) (domain or fragment)

B1: AtCRE1-REC, complete receiver domain Leu918-Ser1057 (Arabidopsis thaliana CRE1/AHK4) (domain or fragment)
chain: SNALLTGKKILVVDDNIVNRRVAAGALKKFGAEVVCAESGQVALGLLQIPHTFDACFMDIQMPQMDGFEATRQIRMMEKETKEKTNLEWHLPILAMTADVIHATYEECLKSGMDGYVSKPFEEENLYKSVAKSFKPNPISPSS
notes: Ser-Asn-Ala cloning artifact at the N-terminus (vector pMCSG68); AHK4/CRE1/WOL, Arabidopsis thaliana, receiver domain Leu918-Ser1057; numbers count on: UniProt Q9C5U0-2; also called AtCRE1-REC-Mg; source: E. coli BL21 Gold, purified (Ni-NTA, TEV, Superdex75)
stoichiometry N [3]: 2

B2: MtCRE1-REC (receiver domain of cytokinin receptor CRE1 from Medicago truncatula) (domain or fragment, UniProt G7LCC3 856-994, looked up)
chain: SLLFGKKILVVDDNVVNRRVAAGALKNFGADVKCADSGKAALEMLQFPHKFDACFMDIQMPEMDGFEATRRIREMERTANEETNSECGERKSEFHLPILAMTADVIHATYEECLKCGMDGYVSKPFEEENLYQAVAKFF
notes: Made by proteolysis, not cloned as a domain; residues 936-948 are missing in the map; also called MtCRE1-REC-Ca; source: recombinant MtCRE1-IC from E. coli, limited proteolysis with thermolysin, purified (Superdex 75)
binding result [4]: binds

B3: AtCRE1-REC, C-terminally truncated receiver domain Leu918-Phe1048 (Arabidopsis thaliana CRE1/AHK4) (domain or fragment)
chain: SNALLTGKKILVVDDNIVNRRVAAGALKKFGAEVVCAESGQVALGLLQIPHTFDACFMDIQMPQMDGFEATRQIRMMEKETKEKTNLEWHLPILAMTADVIHATYEECLKSGMDGYVSKPFEEENLYKSVAKSF
notes: cloning linker at the N-terminus (vector pMCSG68); Ser-Asn-Ala is printed for the longer construct from the same vector, Asn916-Ala917 of the linker are named for this one; AHK4/CRE1/WOL, Arabidopsis thaliana, receiver domain with a 9-residue C-terminal truncation, Leu918-Phe1048; numbers count on: UniProt Q9C5U0-2; also called AtCRE1-REC-K; source: Magic E. coli strain, purified (Ni-NTA, TEV, …)
binding result [5]: binds
